Measured values: patent US20250026846A1 (JCR PHARMACEUTICALS, published 2025)
Where two headings read alike, the source gives them in different places. Blank lines part the entries; values can stand above or below the binder they belong to.

B1: recombinant monkey TfR (r monkey TfR: Sino Biological Inc.), crab-eating monkey TfR extracellular region with a histidine tag at the N-terminus (receptor)
chain: CKGVEPKTECERLAGTESPAREEPEEDFPAAPRLYWDDLKRKLSEKLDTTDFTSTIKLLNENLYVPREAGSQKDENLALYIENQFREFKLSKVWRDQHFVKIQVKDSAQNSVIIVDKNGGLVYLVENPGGYVAYSKAATVTGKLVHANFGTKKDFEDLDSPVNGSIVIVRAGKITFAEKVANAESLNAIGVLIYMDQTKFPIVKADLSFFGHAHLGTGDPYTPGFPSFNHTQFPPSQSSGLPNIPVQTISRAAAEKLFGNMEGDCPSDWKTDSTCKMVTSENKSVKLTVSNVLKETKILNIFGVIKGFVEPDHYVVVGAQRDAWGPGAAKSSVGTALLLKLAQMFSDMVLKDGFQPSRSIIFASWSAGDFGSVGATEWLEGYLSSLHLKAFTYINLDKAVLGTSNFKVSASPLLYTLIEKTMQDVKHPVTGRSLYQDSNWASKVEKLTLDNAAFPFLAYSGIPAVSFCFCEDTDYPYLGTTMDTYKELVERIPELNKVARAAAEVAGQFVIKLTHDTELNLDYERYNSQLLLFLRDLNQYRADVKEMGLSLQWLYSARGDFFRATSRLTTDFRNAEKRDKFVMKKLNDRVMRVEYYFLSPYVSPKESPFRHVFWGSGSHTLSALLESLKLRRQNNSAFNETLFRNQLALATWTIQGAANALSGDVWDIDNEF
notes: Bought from Sino Biological; also called r monkey TfR-ECD (Histag); not shown: histidine tag at the N-terminus

Assays:
[1] = target: T1, Fab GS-GAA (fusion protein between Fab anti-hTfR antibody 3N and hGAA); experiment: BLI (Octet RED96), His-tagged TfR ECD on Ni-NTA sensor; Table 17-2, Fab GS-GAA
T1 construct: also called Fab GS3-GAA; Fab-GS3-GAA
T1 sequence (light, as listed by the source, chain 1 of 2): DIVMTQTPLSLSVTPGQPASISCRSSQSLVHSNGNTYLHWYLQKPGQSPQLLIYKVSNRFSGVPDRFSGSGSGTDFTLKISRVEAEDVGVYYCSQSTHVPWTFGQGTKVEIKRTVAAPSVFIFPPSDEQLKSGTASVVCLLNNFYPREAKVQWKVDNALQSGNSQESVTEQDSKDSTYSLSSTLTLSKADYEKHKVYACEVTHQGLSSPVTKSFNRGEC
T1 sequence (heavy, as listed by the source, chain 2 of 2): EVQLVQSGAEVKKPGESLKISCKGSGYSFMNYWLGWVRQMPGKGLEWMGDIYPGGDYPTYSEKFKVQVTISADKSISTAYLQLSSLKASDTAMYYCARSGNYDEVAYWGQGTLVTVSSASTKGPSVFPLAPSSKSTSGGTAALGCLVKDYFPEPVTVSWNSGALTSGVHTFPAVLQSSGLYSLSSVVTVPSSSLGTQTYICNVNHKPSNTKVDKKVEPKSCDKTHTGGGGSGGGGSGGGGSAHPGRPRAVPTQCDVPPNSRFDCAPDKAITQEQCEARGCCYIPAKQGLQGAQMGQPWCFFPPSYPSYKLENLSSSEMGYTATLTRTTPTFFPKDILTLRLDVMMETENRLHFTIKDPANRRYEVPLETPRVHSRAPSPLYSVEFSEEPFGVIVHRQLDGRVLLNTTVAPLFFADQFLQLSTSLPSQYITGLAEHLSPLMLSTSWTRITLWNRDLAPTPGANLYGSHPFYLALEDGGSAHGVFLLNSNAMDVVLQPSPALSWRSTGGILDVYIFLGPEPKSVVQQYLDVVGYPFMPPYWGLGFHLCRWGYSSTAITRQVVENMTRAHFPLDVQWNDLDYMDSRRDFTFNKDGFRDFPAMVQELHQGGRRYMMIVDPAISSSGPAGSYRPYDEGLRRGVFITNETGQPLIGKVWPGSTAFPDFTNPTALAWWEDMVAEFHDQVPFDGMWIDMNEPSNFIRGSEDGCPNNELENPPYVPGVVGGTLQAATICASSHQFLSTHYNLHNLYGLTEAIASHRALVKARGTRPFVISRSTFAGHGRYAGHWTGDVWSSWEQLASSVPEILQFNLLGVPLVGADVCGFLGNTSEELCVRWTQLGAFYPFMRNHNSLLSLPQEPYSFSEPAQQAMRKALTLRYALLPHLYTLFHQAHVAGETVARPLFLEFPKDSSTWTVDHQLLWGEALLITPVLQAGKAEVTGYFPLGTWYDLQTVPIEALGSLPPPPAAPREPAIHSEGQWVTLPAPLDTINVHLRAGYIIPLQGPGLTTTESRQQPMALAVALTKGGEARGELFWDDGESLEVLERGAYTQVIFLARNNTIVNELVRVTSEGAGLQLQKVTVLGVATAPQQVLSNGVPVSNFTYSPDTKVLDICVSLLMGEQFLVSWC

[2] = target: T1, Fab GS-GAA (fusion protein between Fab …); experiment: BLI (Octet RED96), His-tagged TfR ECD on Ni-NTA sensor; Table 21, Fab-GS3-GAA
[3] = target: T1, Fab GS-GAA (fusion protein between Fab …); experiment: BLI (Octet RED96), His-tagged TfR ECD on Ni-NTA sensor
Method: (§1) Each of the sample solutions prepared above by 2-fold dilution steps was added, 200 μL/well, to a 96-well plate, black (Greiner Bio-One Inc.). Each of the r human TfR-ECD (Histag) solution and the r monkey TfR-ECD (Histag) solutions prepared above was added, 200 μL/well, to predetermined wells. To respective wells for baseline, dissociation and washing were added HBS-P+, 200 μL/well. To wells for regeneration were added 10 mM Glycine-HCl (pH 1.7), 200 μL/well. To wells for activation was added 0.5 mM NiCl₂ solution, 200 μL/well. The plate and biosensor (Biosensor/Ni-NTA: ForteBio Inc., a division of Pall Corporation) were set in the prescribed positions of Octet RED96.
(§2) The measurement was performed at 25 to 30° C.
(§3) The affinity of the hGAA-anti-hTfR antibody 3N (IgG4) obtained in Example 26 to human TfR and monkey TfR was measured in accordance with the method described in Example 23.

[4] = target: hGAA-anti-hTfR antibody 3N (IgG4); experiment: as above
Sequence of hGAA-anti-hTfR antibody 3N (IgG4) (light, as listed by the source, chain 1 of 2): as the sequence (light, as listed by the source, chain 1 of 2) above
Sequence of hGAA-anti-hTfR antibody 3N (IgG4) (heavy, as listed by the source, chain 2 of 2): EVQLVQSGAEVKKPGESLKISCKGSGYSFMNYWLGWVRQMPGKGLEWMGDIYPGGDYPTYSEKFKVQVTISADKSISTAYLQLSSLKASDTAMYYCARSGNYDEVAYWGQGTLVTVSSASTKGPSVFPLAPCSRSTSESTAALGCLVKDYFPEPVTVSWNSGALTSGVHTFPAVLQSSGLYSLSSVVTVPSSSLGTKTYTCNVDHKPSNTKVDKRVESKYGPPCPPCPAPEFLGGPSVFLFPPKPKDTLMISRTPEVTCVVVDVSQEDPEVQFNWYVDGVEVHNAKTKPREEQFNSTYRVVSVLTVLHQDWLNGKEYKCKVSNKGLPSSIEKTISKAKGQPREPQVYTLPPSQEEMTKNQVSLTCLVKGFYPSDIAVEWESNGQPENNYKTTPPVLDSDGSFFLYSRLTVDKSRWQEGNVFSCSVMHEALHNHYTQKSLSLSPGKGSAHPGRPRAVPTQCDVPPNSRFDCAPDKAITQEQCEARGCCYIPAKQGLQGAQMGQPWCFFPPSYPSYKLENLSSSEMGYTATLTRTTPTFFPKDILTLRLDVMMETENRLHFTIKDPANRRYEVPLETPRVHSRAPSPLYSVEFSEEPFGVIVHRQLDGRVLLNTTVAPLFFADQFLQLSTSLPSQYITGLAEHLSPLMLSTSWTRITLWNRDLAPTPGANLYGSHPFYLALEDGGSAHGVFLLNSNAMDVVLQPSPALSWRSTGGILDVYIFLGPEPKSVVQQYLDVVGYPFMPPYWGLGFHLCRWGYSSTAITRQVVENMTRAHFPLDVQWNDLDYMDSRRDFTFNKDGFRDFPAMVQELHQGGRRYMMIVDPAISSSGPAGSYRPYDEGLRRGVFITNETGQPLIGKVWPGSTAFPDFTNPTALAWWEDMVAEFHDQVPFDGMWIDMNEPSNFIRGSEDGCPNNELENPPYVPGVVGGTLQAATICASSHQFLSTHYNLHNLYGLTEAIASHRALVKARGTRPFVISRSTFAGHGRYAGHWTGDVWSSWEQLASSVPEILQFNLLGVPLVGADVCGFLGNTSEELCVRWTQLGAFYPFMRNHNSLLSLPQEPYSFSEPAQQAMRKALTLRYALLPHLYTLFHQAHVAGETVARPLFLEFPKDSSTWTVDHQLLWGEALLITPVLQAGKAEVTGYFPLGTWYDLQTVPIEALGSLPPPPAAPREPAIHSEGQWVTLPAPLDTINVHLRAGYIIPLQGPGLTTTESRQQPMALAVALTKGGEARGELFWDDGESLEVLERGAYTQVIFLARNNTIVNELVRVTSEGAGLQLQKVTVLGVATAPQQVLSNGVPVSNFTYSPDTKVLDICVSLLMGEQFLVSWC
Method: as §1, §2, §3

[5] = target: B1; experiment: BLI (Octet RED96)
[6] = target: T2, recombinant human TfR (r human TfR: Sino Biological Inc.), hTfR extracellular region with a histidine tag at … (human, UniProt P02786 89-760); experiment: BLI (Octet RED96), His-tagged TfR ECD on Ni-NTA sensor
T2 construct: Bought from Sino Biological; also called r human TfR-ECD (Histag); recombinant hTfR; not shown: histidine tag at the N-terminus
Method: as §1, §2
(§4) The affinity of humanized anti-hTfR antibody No. 3 obtained in Example 13 and humanized anti-hTfR antibody No. 3N obtained in Example 17 to human TfR and human TfR was measured by the method described in Example 7. […] Besides, the measurement indicating the affinity of humanized anti-hTfR antibody No. 3 to human TfR differed from that shown in Table 6, but is an experimental error.

[7] = target: B1; experiment: as above
Method: as §1, §2
as §4, with “TfR and monkey TfR was” for “TfR and human TfR was”, “3 to monkey TfR differed” for “3 to human TfR differed”, “in Table 7, but is” for “in Table 6, but is”

[8] = target: B1; experiment: as above
Method: (§5) The purified product of anti-hTfR antibody No. 3 was subjected to 2-fold dilution steps with HBS-P+ (10 mM HEPES containing 150 mM NaCl, 50 μM EDTA and 0.05% Surfactant P20) to prepare antibody solutions of 7 different concentrations, 0.78125 to 50 nM (0.117 to 7.5 μg/mL). The antibody solution was used as the sample solution. The r human and r monkey TfRs were respectively diluted with HBS-P+ to prepare 25 μg/mL solutions, which were used as r human TfR-ECD (Histag) solution and r monkey TfR-ECD (Histag) solution, respectively.
as §1, §2

[9] = target: T2, recombinant human TfR (r human TfR: …); experiment: as above; remark: listed apart in the source
Method: as §5, §1, §2

Binder: B1
Kd [1]: 15.2 nM | Kd [2]: 30.5 nM | koff [2]: 0.0145 s⁻¹ | kon [2]: 473000 M⁻¹ s⁻¹ | koff [3]: 0.00501 s⁻¹ | kon [3]: 329000 M⁻¹ s⁻¹ | Kd [4]: < 0.001 nM | koff [4]: < 1e-07 s⁻¹ | kon [4]: 203000 M⁻¹ s⁻¹

KD relative to that of humanized anti-hTfR antibody No. 3 [5]: ~0.033 fold | fold affinity against humanized anti-hTfR antibody No. 3 [5]: ~30 fold | Kd [6]: < 0.001 nM | koff [6]: < 1e-07 s⁻¹ | kon [6]: 784000 M⁻¹ s⁻¹ | Kd [7]: 0.0507 nM | koff [7]: 1.96e-05 s⁻¹ | kon [7]: 386000 M⁻¹ s⁻¹
B2: humanized anti-hTfR antibody No. 3N (antibody, human IgG1, kappa, V domains shown)
VH: EVQLVQSGAEVKKPGESLKISCKGSGYSFMNYWLGWVRQMPGKGLEWMGDIYPGGDYPTYSEKFKVQVTISADKSISTAYLQLSSLKASDTAMYYCARSGNYDEVAYWGQGTLVTVSS
VL: DIVMTQTPLSLSVTPGQPASISCRSSQSLVHSNGNTYLHWYLQKPGQSPQLLIYKVSNRFSGVPDRFSGSGSGTDFTLKISRVEAEDVGVYYCSQSTHVPWTFGQGTKVEIKR
notes: IgG1; also called Humanized anti-hTfR antibody 3N

Kd [8]: < 0.001 nM | koff [8]: < 1e-07 s⁻¹ | kon [8]: 389000 M⁻¹ s⁻¹ | Kd [9]: < 0.001 nM | koff [9]: < 1e-07 s⁻¹ | kon [9]: 653000 M⁻¹ s⁻¹
B3: anti-hTfR antibody No. 3 (mouse antibody produced by hybridoma Clone 3 line) (antibody, V domains shown)
VH: EVQLQESGAELVRPGTSVKISCKASGYSFTNYWLGWVKQRPGHGLEWIGDIYPGGDYPTYSEKFKVKAILTADTSSSSVYLHLSSLTSEDSAVYFCARSGNYDEVAYWGQGTLVTVST
VL: DIVMTQTTLSLPVSLGDQASISCRSSQSLVHSNGNTYLHWYLQKPGQSPKLLIYKVSNRFSGVPDRFSGSGSGTDFTLKISRVEAEDLGVFFCSQSTHVPWTFGGGTKLEIKR
notes: Whole mouse antibody purified from hybridoma supernatant on Protein G; also called mouse anti-hTfR antibody No. 3; pre-humanized anti-hTfR antibody
